For experiment [1], the target named is T1, mouse CLDN18.2 (mCLDN18.2) (mouse, UniProt P56857 10-264).
T1 construct: Stably expressed on HEK293 cells; the stomach-type isoform is meant; also called mouse mhCLDN18.2; m hCLDN18.2
T1 chain: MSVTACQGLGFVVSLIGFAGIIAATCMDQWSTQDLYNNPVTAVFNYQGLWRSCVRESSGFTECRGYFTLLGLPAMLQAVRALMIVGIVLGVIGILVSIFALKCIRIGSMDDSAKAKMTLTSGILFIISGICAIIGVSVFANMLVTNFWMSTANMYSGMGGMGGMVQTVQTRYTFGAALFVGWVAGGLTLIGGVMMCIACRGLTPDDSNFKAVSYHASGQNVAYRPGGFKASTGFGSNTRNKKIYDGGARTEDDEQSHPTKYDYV
In words: flow cytometry on HEK293-mCLDN18.2 cells, paraformaldehyde-fixed and non-fixed. (Flow cytometry measures light scatter and fluorescence of single cells or particles in a stream.)

The target in experiment [2] is T2, mouse CLDN18.1 (mCLDN18.1) (mouse, UniProt P56857 1-264).
T2 construct: Stably expressed on HEK293 cells; the lung-type isoform is meant; also called HEK293-mCLDN18.1
In words: flow cytometry on HEK293-mCLDN18.1 cells, paraformaldehyde-fixed and non-fixed.

Experiment [3] concerns the target T3, human CLDN18 splice variant 2 (Claudin 18.2, hCLDN18.2) (human).
T3 construct: The same entry is used for CLDN18.2 in human stomach and gastric cancer FFPE tissue (IHC); also called HEK293-hCLDN18.2; HEK293-CLDN18.2
In words: flow cytometry on HEK293-hCLDN18.2 cells, paraformaldehyde-fixed and non-fixed.

Experiment [4] deals with T3, human CLDN18 splice variant 2 (Claudin …). In words: flow cytometry on HEK293-hCLDN18.2 cells, 3-fold dilutions from 10 µg/mL, 8 points.
For experiment [5] the target is unchanged. In words: IHC with hybridoma supernatant on FFPE sections of HEK293-hCLDN18.2 cell blocks.

Data on five molecules can be found in US20230312704A1 (SHANGHAI ESCUGEN BIOTECHNOLOGY, published 2023).

Positions count from the first letter of the chain named.

B1: human-mouse chimeric positive control antibody 163E12 (antibody, human IgG1, kappa, V domains shown)
VH: QIQLVQSGPELKKPGETVKISCKASGYTFTNYGMNWVKQAPGKGLKWMGWINTNTGEPTYAEEFKGRFAFSLETSASTAYLQINNLKNEDTATYFCARLGFGNAMDYWGQGTSVTVSS
VL: DIVMTQSPSSLTVTAGEKVTMSCKSSQSLLNSGNQKNYLTWYQQKPGQPPKLLIYWASTRESGVPDRFTGSGSGTDFTLTISSVQAEDLAVYYCQNDYSYPLTFGAGTKLELKR
notes: Human-mouse chimeric antibody expressed in CHOS cells and purified on Protein A. It was detected with an anti-human Fc secondary antibody; also called home-made positive control (Benchmarker) chimeric antibody 163E12
As for B1, the binding result is given as “binds” in experiment [1], “no binding” in experiment [2] and “binds” in experiment [3].

B2: purified recombinant mouse monoclonal antibody 5-I10 (mouse IgG2a, kappa) (antibody, V domains shown)
VH: EIQLQQSGAELVKPGASVKISCKAPGYSFTDYNMNWVKQSHGKSLEWIGNINSYYGSTSYNQKFKGKATLTVDRSSSTAYMQLNSLTSEDSAVYYCTNFDRGNSFPYWGHGTLVTVSA
VL: B1 VL with A15V, S22T, P49S, D66E, S71R, D97G, L102F, A106S, K109N, L112I
notes: also called recombinant and purified mouse IgG2a type 5-I10
Turning to B2, in experiment [4], the binding result is “binds”.

B3: purified recombinant mouse monoclonal antibody 5-G17 (mouse IgG2a, kappa) (antibody, V domains shown)
VH: EVKLVESGGGLVKPGGSLKLSCAASGFTISDYGMAWVRQAPGKGPEWVAFISNLAYSIHYVDTVTGRFTISRENAKNTLYLEMRSLRSEDTAMYYCARMYYGNALDYWGQGTSVTVSS
VL: B1 VL with A15T, S28N, Y100F
notes: Expressed in HEK293 cells and purified on Protein A; also called recombinant and purified mouse IgG2a type 5-G17
For the molecule B3, the binding result in experiment [4] is listed as “binds”.

B4: 5-G17 (mouse hybridoma clone, supernatant) (antibody, V domains shown)
VH: B3 VH
VL: DIVMTQSPSSLTVTTGEKVTMSCKSSQNLLNSGNQKNYLTWYQQKPGQPPKLLIYWASTRESGVPDRFTGSGSGTDFTLTISSVQAEDLAVYYCQNDYSFPLTFGAGTKLELK
notes: Antibody as secreted by the hybridoma; also called subclones 5-G17-30 and 5-G17-6
Regarding B4, the binding result in experiment [5] is on record as “binds”.

B5: 5-I10 (mouse hybridoma clone, supernatant) (antibody, V domains shown)
VH: B2 VH
VL: DIVMTQSPSSLTVTVGEKVTMTCKSSQSLLNSGNQKNYLTWYQQKPGQSPKLLIYWASTRESGVPERFTGRGSGTDFTLTISSVQAEDLAVYYCQNGYSYPFTFGSGTNLEIK
notes: Antibody as secreted by the hybridoma; also called subclones 5-I10-33 and 5-I10-18
Turning to B5, the binding result in experiment [5] is recorded as “binds”.
